According to patent US6379664:
One block for each binder: values may come before it.

Experiments:
[1] = biological target: BSA-GSH mixed disulfide, P02769
[2] = biological target: G3PD from H2O2 (0.5 mM) pretreated rabbit lens epithelial cells
[3] = biological target: alpha crystallin-GSH mixed disulfide
[4] = biological target: alpha crystalline-cystine mixed disulfide
[5] = biological target: gamma crystallin-GSH mixed disulfide
[6] = biological target: protein-cysteine mixed disulfides (PSSC); test: cell-based or functional assay

Chain of BSA-GSH mixed disulfide, P02769 (P02769 25-607): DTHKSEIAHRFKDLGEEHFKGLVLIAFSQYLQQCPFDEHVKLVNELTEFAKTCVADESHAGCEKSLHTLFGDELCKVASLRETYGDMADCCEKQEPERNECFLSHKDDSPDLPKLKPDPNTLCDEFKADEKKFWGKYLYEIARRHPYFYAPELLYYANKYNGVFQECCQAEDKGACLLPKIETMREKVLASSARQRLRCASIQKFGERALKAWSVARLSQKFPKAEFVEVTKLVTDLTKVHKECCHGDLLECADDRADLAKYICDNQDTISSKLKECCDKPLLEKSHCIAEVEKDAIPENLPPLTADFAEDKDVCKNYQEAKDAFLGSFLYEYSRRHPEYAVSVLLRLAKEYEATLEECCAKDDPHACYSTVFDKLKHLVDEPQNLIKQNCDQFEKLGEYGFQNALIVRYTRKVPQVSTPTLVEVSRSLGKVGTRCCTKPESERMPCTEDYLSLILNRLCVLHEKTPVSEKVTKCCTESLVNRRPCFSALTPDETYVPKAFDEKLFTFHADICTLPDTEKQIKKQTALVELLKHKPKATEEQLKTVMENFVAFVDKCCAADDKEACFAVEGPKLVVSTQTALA

B1: recombinant human lens thioltransferase (protein)
chain: AQEFVNCKIQPGKVVVFIKPTCPFCVKTQELLSQLPFKEGLLEFVDITATSDTNEIQDYLQQLTGARTVPRVFIGKECIGGCTDLESMHKRGELLTRLQQIGALK
- dethiolation of 3H-PSSG (nmol dethiolated per µg thioltransferase protein; TCA-soluble radioactivity) [1]: 0.3 nmol/µg thioltransferase
- regeneration of G3PD activity (percent of activity regenerated by 30 mM DTT) [2]: regeneration of G3PD from H2O2 (0.5 mM) pretreated rabbit cells by recombinant human lens thioltransferase
- dethiolation of 3H-PSSG (nmol dethiolated per µg thioltransferase protein; TCA-soluble radioactivity) [3]: 0.6 nmol/µg thioltransferase
- dethiolation of 14C-PSSC [4]: alpha crystalline-cystine mixed disulfide could not be dethiolated by lens thioltransferase
- dethiolation of 3H-PSSG (nmol dethiolated per µg thioltransferase protein; TCA-soluble radioactivity) [5]: 1.15 nmol/µg thioltransferase
- substrate preference in dethiolation [5]: Gamma crystallin-thiol mixed disulfide appears to be the favorable substrate for lens thioltransferase

- dethiolation of PSSC relative to PSSG [6]: 50 to 60%
B2: recombinant human lens thioltransferase, P12309 2-106 (enzyme)
chain: AQEFVNCKIQPGKVVVFIKPTCPFCVKTQELLSQLPFKEGLLEFVDITATSDTNEIQDYLQQLTGARTVPRVFIGKECIGGCTDLESMHKRGELLTRLQQIGALK
